Here are results for 22 sequences from a protein production outcome set (Wang et al. 2014).
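Note: failed if final PepcDB status was selected cloned or expressed and not failed if soluble or beyond.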

The data set is described as follows: label from the status in PepcDB records.
As for “MQNTPVILFDLDGTLIDSTEAVYEGFCVAFEKNGGAIPSQGKVVELIGHTLEDMFLRLGVPEVNITQHVLDYKAHYRIISKPKTNLLPKAREAILEASKFATLGVVTTKTGRFSRELLEYFEVLHFFKSIVGREDVTNAKPHPEPIFKALSEIGIKEVSAWMVGDTPLDLLAAQEAGIKSVAVLSGYAEEEMLRKYTLNVSKD”, the protein production result is on record as “failed”.

With “MQPILWILTLGISLNGVTSVTFLKQFNTSFLDFEIVGVPIIFALTIPLFGSFSSRLEFSNSTIYVVHLLSNRKIIYYFMGTDVIFYAIITFVNVLTVAGLSFILTSEGVNVIGLLAVLPLMLLGSLTSYSLGIIINSLFRNLSSPTSYLFSLIQVILILFSGVYYPLSYLPEYLRIIAFISPYSHLIALIRYILLGYNASDLNALWFYTLPYQVQVVLSISYVIVLGVILFILAGKRLVKGQGMVLL”, the protein production result was “failed”.

With “MQPVEASDYWELARLSQPAVSPTGDRVAYVRTTAERDGDTGQETASVHVAPVGGGGSRRFTAADGTDAEPAWSPTGDRLAFVSTRGDAGGGRPQLWVVPVDGGEATRITDVIGGVSNIAWGPDGDRVAFLQAVRPAERAEELDREHDGEYERDTPDPRVIDRQMYRGHTSYRDGARRHVYVADLAAGRVDRVTAGVAECGGPAWGDDGTLYYPIRRGLDADDRLEWAIEAATPADSADSTVVTTVEGMGPTLAVHGSRVAYTTTPADDPTLTQTAVEVFDRDTGATDRLTDGVDRTVAERTAGHAPEWGPDGEHLYVCTPDEGGYVLRRVAADTGDDRVVLAGDRHVHAFSVSADAVAVVQSEWDHPGEVVAATPMGGEEVTLTRANRDYLDERAVSKPESVWIDGPAGDIQGWVLTPPEFDPEETYPLVVNVHGGPHLMWSAAGTMWHEFQTLAARGYVVFWCNPRGSTGYGQEWLRAVERDWGAVTLADVMAGVAAVTDRDYVDADNAFITGGSFGGFMTGWAVGHTDAFAGAVAQRGVYDLTGFYGTTDAYALVEGEFDTDPVRDNAFLWAQSPAAHTDAVDTPTLLVHSEADYRTPANTAELFYRLLKKHGVDTRLVRYPGEGHDLSRSGDPGHVVDRIERIAAWFDGYSDHHEAAPVLETDRPGAAADE”, the protein production result was “failed”.

As to “MQRERTAESSLRVISKEKNSITVEMINYDNTLLRTLVEEILKDDQVDEARYYIKHPVIDNPQIYVRVKSGKPQSAIKRAVRKLSKLYEDLGTQFQKEFQRYESDHMIKAVE”, the protein production entry was “not failed”. Under “MQRFVCEQNIAHFQKLLETAEDEKLRRTLLGLLSSAKRELALLHSRLSGADLSPLAYRNRGGDLNSVLAQIRAGFDASDHPYMLIDAGPGLKIIDINDAYARATFTAREAIVGKPLFEIFPDNPAIDTADGVSNVYNSLRAVVETGEPHALAVQRYDMRNTEGVFVERYWQSINTPVRDAGGKLICLLHNVEDVTAEVLAN” stands “failed”; under “MQSAKEKISDMASTAKEKLNIGGAKAQGHAEKTMARTKKEKKLAQEREKSKEAQAKADLHQSKAEHAADAQVHGHHLPGHSTYPTRATGANYPPGQI”, “failed”. Under “MQSFWSKLKIESSKLLPSYFASVMAIGIFSIAFFLYNYNVLSYLLSYLSNVIYFALWVITVIRWVYYPRSYLNELKDLGRSPGFLSKVIATNTIGSEYMLIFKDYSLAYAFFMFGLILWIFYQYAVLSAISFNINDRNIEYVNGIWELIPASTQSVVDLGSILSPFHTYLYTLSLILFFIGVAQYIVMTSLILGRIVLKGLKPKDASGSYWIITGAAALSALAGIDLLIYLNEVNLQSAYIGDLRTIVLTFIILLWSTGTWWIPWLIYMGIWKHVINRVPLLVYDPQFWGAVFPMGMYATSSFLLIRYVNLNIPMLIPDIFILVGSVALVYQTSLMLYNVVKKLVD” stands “failed”.

On to “MQSSQVKSAMRALEIMEFFRAVKQPRSMSEISIALGYPQSSTTVLLKTLISLGYLNFNRKERLYFPTLKVSALGDWIANSLFSSRDILEVLQDIHMETGETVAIATKNDIYLQYIQIIESVHALRFHVDENAIRPLTMSSNGWMLMSTMNDKAIDNTVRRANTITQKDGIRFEVDDMMARIRQVREQGYASAEHIPFVGGGTICVLLPMTIQGQPVTMGLGGALDRIKQNYDRYLELLLNGVQQLKKSDSFHQPIELAH”, for which the protein production entry is given as “failed”.

On to “MQSVEDKTFCLQTLSANPLAASATGLLPLAEVVIRGIDLPYAKLLVKSADRAIEKIPALKEQFKECQDSFLRIVMSLKSAASELKVSPDTANYDAMICFDETKRVKEVIGKNEDVTSKSLIEMTLRMEKLIFLALGATEVVGG”, for which the protein production result is reported as “failed”. Next, “MQTEIITQLVLIFPEILIALGGITLLLFGVYSKASSSLTVTGLAIALFVATIVIIIIFPKSGLFQTNALIIDSFGRYMKILTLIGALFALIMSVNFTSTQKFDIFEFPVLVLLATLGMMLMISAGNMLSLYMGLELQSLALYVLAAINRNNIKSSEAGIKYFALGALSSGLLLYGISLVYGFTGQIGFREIAVALKGENLPLGVIFGIVFILAGLAFKISAVPFHMWTPDVYEGAPTPITAFFAGAPKVAAMALIVRIIVMTFIPLENTDGSMPAWQQILVFMAIASMILGAFAAIGQSNIKRLMAYSSISHMGYALVGLASGDMLGIKSVILYMTIYLSMTIGSFAFILGMRSSDGNVEDIYDLSGLVKTNPFMAITMTIQLFSLASIPPMAGFFGKWYTFSAAVHAGLTPLAIVGMIASVVGAFYYLRLIKIMWFDDAKAHFIVLSNEFRFCLSFSAFFILSYTLFGIWFADLAERAATALF”: “failed”; “MQTKVINFNDKFSLFNQHWSPRVIAEMNDYQFKLVKVEGEFVWHEHADTDEVFIVMEGTLQIAFRDQNITLQAGEMYVIPKGVEHKPMAKEECKIMIIEPR”: “not failed”; “MQTLNVLDNRFSPFNTYSTLSTDALVAETFTNTIFDKRQILALMTQLQTTLDIDELLSIFAVEATRYVDFSGLYFKSQNLNTVLFGSRKAKKEQCFELKIEDNFIGTLSYGINSPISLTNFKVLEQLHLCLLHPIKNAIAYHTAMQLAMQDGLTGLGNRRYFDEQLKRSMHNANRHHSLVGLVLGDLNKFKAINDTHGHIAGDTVLQEFANVLRLCTRDSDSLFRFGGDEFAIIVENANDTALAIIENRINLALASNVQLNKYQLGCSIGSTFMNRADNELSFFERADEILYRRKMQVSSHLSVV”: “failed”. Take “MQTSNITNHERNDSSWMSTVKSTTEVSWNKLSFCDILLKIITFGIYSPHETLAEKHSEKKLMDSFSPSLSQDKMDGEFAHANIDGISIRLCLNKGICSVFYLDGDKIQSTQLSSKEYNNLLSSLPPKQFNLGKVHTITAPVSGNFKTHKPAPEVIETAINCCTSIIPNDDYFHVKDTDFNSVWHDIYRDIRASDSNSTKIYFNNIEIPLKLIADLINELGINEFIDSKKELQMLSYNQVNKIINSNFPQQDLCFQTEKLLFTSLFQDPAFISALTSAFWQSLHITSSSVEHIYAQIMSENIENRLNFMPEQRVINNCGHIIKINAVVPKNDTAISASGGRAYEVSSSILPSHITCNGVGINKIETSYLVHAGTLPSSEGLRNAIPPESRQVSFAIISPDV”: the protein production result is recorded as “not failed”. Next, “MQTTEIDLRLTEVSQQLTMVLVPGLRDSDDEHWQSHWERRFPHWQRIRQREWYQADLDRWVLAIRRELSVCTQPVILIGHSFGALAACHVVQQGQEGIAGVMLVAPAEPMRFEIDDRIQASPLSVPTLTFASHNDPLMSFTRAQYWAQAWDSELVDVGEAGHINAEAGFGPWEYGLKRLAEFSEILIPNR”: “not failed”; “MQTVPSSDGTPIAFERSGSGPPVVLVGGALSTRAGGAPLAERLAPHFTVICYDRRGRGDSGDTPPYAVEREIEDLAAIIDAAGGAAFVFGMSSGAGLSLLAAASGLPITRLAVFEPPYAVDDSRPPVPPDYQTRLDALLAEGRRGDAVTYFMTEGVGVPPDLVAQMQQAPMWPGMEAVAHTLPYDHAVMGDNTIPTARFASISIPTLVMDGGASPAWIRHTAQELADTIPNARYVTLENQTHTVAPDAIAPVLVEFFTR”: “not failed”. On to “MQVRIERAERIESELEEHVGDQTFVEESRFLEEDEQREGEILDQIIFVDGKRRSFVRITTDEGITGIFAELCVGAVIWDREGGTKTLFSPDKPPVKERVLGFSQSFQEEGYEEVGGILFKVVKEGKDAMQSIDLYMRSLEIEEVRKHMDKNILIVKDGPAARELPFEENVGPIGLVKNIGVTELSKEDFKKLRFLKKGKRSKMFVSSRETPLKKVGAYVKLIDGEGIRGLVRLETYVKDDNQIPYIRKVFDDLAKTLPHLTADLPIPRLPENILPIQFLEENLSYYLTDKNYMNTRLFAYIGR”, for which the protein production result is recorded as “not failed”. Next, “MQVTADAVPKLNRAAVAAGSADIDAVSGATYTSAGYVKSLQSALDKAAAAAGPAAQESSGADSGSGGGGRSEGDAGQGTQVLTGDAAQTQYGPVQVRVTVSGGRITDVEALQAPKGGRSDQVTADAVPRLNRAAVAAGTADIDAVSGATYTSAGYTQSLQSALDRAGGLEHHHHHH”: “failed”.

With “MQWANLALFLTEAIVYFSVMTAFLHYRHILGIGVFLTALGVMHFLETYLAAVFYVQLPFGVASPGSSILFAGKLMMILMLYMREDAAVVRQPIYGLFLGNILTVIMAQIIRFHQTVAIVPGQSVSTGFLDEMGILMVWGTSLLYIDAIAIILFYEKLGRYLQRHIVLRFAICGVVILSFDQAGFYGALRLLFNAPVDVFYDGWKAKMAAVGIYSLLFATYLWLTAAKGRFLTRRSVADVFNDLTFRERYEELLSRSGRDMLTGVSDRARMELDAPSLVVECLEKRRPVSVLIVDIDHFKTVNDTFGHLQGDEILREFAAVLKRAVQPLGHLYRFGGEEFVALLPAMTHETALAFSASLRVAVLAELQRPDGSPLTVSIGVATAFEDGQLFRALLSEADAWLYAAKNNGRDQVHGRHGMWVG”, the protein production entry was “failed”. As to “MQWIYLCFAILFEVAGTTAMKLSDGLTKLVPSILIFVFYVVSFAFLSFALKGMEMSVAYAVWSGMGIVTITTIGFIYFGESINIIKILAILFILVGVVILNFNSTAHEAKKKEMVEERIH”, the protein production result is on record as “failed”. Next, “MQYIFSIISGIIVGFSLGLIGGGGSILAIPLLIYFVGIKNPHLVIGTTALAVGINALINVYSHLRKKNVSLRTGAIFTVFGILGVLLGTTLGLITPGGKLLFLFSFLMIVIGAYMFITKCKTCKNYDAIPKKNNNDDPPDPPKKGLWQKIKLEVFGVLAGFASGYFGIGGGFLIVPALLYSADITMNLAVGTSLMSVGTFGLVTALRYGIAGKVLVTIALLYVLGGIFGGYAGAKLSSSMKRSTLRRFFSLIIIVVGIYMAIESFSAVF”: “failed”; “MQYIKQIMLLVILTISWKCQAEEVKEIWLDELGESSYYIQDWGLPRINKAVTMTPLTVKGIVYERGIGTHAISRMLFDIGKKAKTLSGLAGADDNTPFACNLQFKILGDRKELWRSGIMRKGDPAKPFNIDLSGIDKVLLLVEECGDGMMYDRADWLNVKFTTLGDVQPIPVWPKPIAKEKYILTPQSPDAPQINNPLTYGARPGNPFLMPIMVSGKRPMTYKAKGLPKGLKLNRKTGLITGSTNTNGNFKVRLQATNEKGTDEKEITLKIGSEIMLTPPMGWNSWNCWRFAADDQKVRDAARIMHEKLQAYGWTYVNIDDGWEADERTPEGELPANEKFPDFKTLTDYIHSLGLKFGIYSSPGWTTCGRHIGSCQHELTDAKTWEKWGVDYLKYDYCGYAAIEKNSEEKTIQEPFIVMRNALDQIKRDIVYCVGYGAPNVWNWGAEAGGNLWRTTRDINDQWNIVMAIGCFQDVCAYVSAPGKYNDPDMLVVGKLGPGWGAKSHDSDLTADEQYAHISLWSILSAPLLLGCDMTAIDDFTLGLLTNPEVIAVNQDPLVAPATKLTVPNGQIWYKKLYDGSYALGFFQMDPYFILWDQDKAVNIQQQKYNFNFALNQLGIQGKVKIRDLWRQKNLGIFSGSYETSIPYHGVSLIKITPIK”: “failed”. Next, “MQYQGRSKRSKTGARLRPRSKKSKSELGREPTETTVGEPRFRTVDVRGDAEKVRVLSTNVVNVATDSGAERATIEDVSANDANPNYARRNIITKGAIIETDAGTARVTSRPGQDGQVNATRVDE”: “failed”.
